Laboratory results as given in patent publication US10759863B2, “Modulation of γδ T cells” (Sanford Burnham Prebys Medical Discovery Institute, priority 2013, dated 2020).

What was measured:
[1] = tested on: BTLA expression in γδT cells and ILCs; assay: Cytokine-induced BTLA expression in cultured iLN γδT cells and PP ILCs; assay type: cell-based, mice; details: for BTLA induction in RORγt+ γδT cells after culture with activating cytokines: iLN lymphocytes of Rorc(t)gfp/+ mice enriched for CD27− γδT cells, FIG. 17A
Method: (§1) Surface staining was performed on ice for 20-30 min. Intracellular staining was performed using the BD Cytofix/Cytoperm™ Kit according the manufacturer's instructions (BD Biosciences). Stained cells were acquired using a BD LSRFortessa™ equipped with 4 lasers (blue at 488 nm, yellow-green at 561 nm, red at 640 nm, violet at 405 nm). Antibodies in SI.
(§2) For IL-7 induced expansion iLN lymphocytes were cultured in RF10 media (RPMI+10% FBS, p/s, L-Glutamine) at 10^7/ml in 12-well plates for four days. For IL-7 induced BTLA expression iLN or PP lymphocytes were enriched for ILCs and CD27^− γδT cells and cultured in RF10 media in 24-well plates containing feeder adherent cells for two days. Following enrichment, cells from 3 animals were cultured in 1 ml in a single well. IL-7 (R&D Systems, Minneapolis, Minn.) was added at 10 ng/ml. For IL-17 and TNF production whole lymph node cells were cultured with or without 10 ng/ml IL-7 for 18 hours and then re-stimulated with PMA (50 ng/ml), ionomycin (750 ng/ml) and Golgi Stop™ (BD Biosciences) for 3.5 hours. TH17 differentiation was performed by isolating CD4^+ T cells from spleens and culturing in anti-CD3 (5 μg/ml) coated 24-well plates at 1.35×10^6/ml with anti-CD28 (2 μg/ml), IL-6 (20 ng/ml) and TGFβ1 (2 ng/ml). At day 5, cells were washed and re-stimulated with PMA+ionomycin and Golgi Stop™ (BD Biosciences) for 3.5 hours. For induction of human IL-22, tonsil lymphocytes were cultured in RF10 media at 1.5×10^6/ml in 24-well plates for 6 hours in the presence of 40 ng/ml IL-23 (eBiosciences) and 10 ng/ml IL-1β (R&D Systems). Golgi Stop™ (BD Biosciences) was added during the final 3 hours.
Jurkat cells were cultured at 10^5/100 μl in U-bottom wells for 24-48 hrs with either DMSO or the indicated concentrations of digoxin (Sigma-Aldrich). To test the effect of STAT5 in IL-7-induced BTLA expression, CD27^− gd T cells were enriched from lymph nodes of Rorc(t)^gfp/+ mice and cultured for two days in 24-well plates containing feeder adherent cells with no stimulus, or with IL-7 in the presence or absence of STAT inhibitor (EMD Millipore, Billerica, Mass.) at the indicated concentrations.

RORγt = assay: Digoxin treatment of RORγt-expressing Jurkat cells, BTLA expression; assay type: cell-based; details: digoxin vs DMSO, 24-48 hrs, FIG. 11B
Method: as §1
For qRT-PCR analysis, total RNA was prepared from FACS sorted populations using the Qiagen RNeasy Mini kit according to the manufacturer's instructions (Qiagen, Valencia, Calif.). RNA was reverse transcribed into cDNA using the iScript™ cDNA synthesis kit (Bio-Rad Laboratories, Hercules, Calif.) according to the manufacturer's instructions. Target genes were detected using intron-spanning primers (Invitrogen) and relative expression was measured using Power® SYBR Master mix (Life Technologies, Grand Island, N.Y.). Reactions were carried out in clear 384 plates using an ABI® 7900 Real-Time PCR System (Life Technologies). We calculated relative expression as follows: 2^−Dct, where Ct=cycle number, DCt=Ct (target gene)−Ct (house-keeping gene). A value of 1 means equal expression of target and house-keeping gene (L32). Oligo sequences (5′-3′):
Jurkat cells were cultured at 10^5/100 μl in U-bottom wells for 24-48 hrs with either DMSO or the indicated concentrations of digoxin (Sigma-Aldrich). […]

γδT cells [2] = assay: IL-7 induced expansion of iLN lymphocytes cultured ex vivo; assay type: cell-based, mice; details: IL-7 10 ng/ml, four days, vs untreated cultures; FIG. 4A
Method: as §2

γδT cells [3] = assay: IL-17 and TNF production by lymph node γδT cells with or without IL-7; assay type: cell-based, mice; details: all γδT subsets, IL-7 10 ng/ml 18 hours then PMA/ionomycin; FIG. 5
Method: as §1
as §2, with “For induction of human IL-22, tonsil lymphocytes were cultured in RF10 media at 1.5×10^6/ml in 24-well plates for 6 hours in the presence of 40 ng/ml IL-23 (eBiosciences) and 10 ng/ml IL-1β (R&D Systems). Golgi Stop™ (BD Biosciences) was added during the final 3 hours.” left out

[4] = iLN γδT cells and PP ILCs from Rorc(t)gfp/+ mice, IL-7 10 ng/ml, two days, vs untreated, FIG. 4G-K

IL-1β: cytokine, potent γδT cell activator
BTLA induction in RORγt+ γδT cells after culture with activating cytokines [1]: either no or only a minimal effect

C[C@H]1O[C@@H](O[C@H]2[C@@H](O)C[C@H](O[C@H]3[C@@H](O)C[C@H](O[C@H]4CC[C@@]5(C)[C@H](CC[C@@H]6[C@@H]5C[C@@H](O)[C@]5(C)[C@@H](C7=CC(=O)OC7)CC[C@]65O)C4)O[C@@H]3C)O[C@@H]2C)C[C@H](O)[C@@H]1O [digoxin]
BTLA expression at the mRNA level (RORγt): induced expression of BTLA
BTLA expression at the protein level (surface expression) (RORγt): induced expression of BTLA

B1: IL-7: cytokine IL-7 (R&D Systems), added at 10 ng/ml (protein, UniProt P13232 26-177, looked up)
Interleukin-7: DCDIEGKDGKQYESVLMVSIDQLLDSMKEIGSNCLNNEFNFFKRHICDANKEGMFLFRAARKLRQFLKMNSTGDFDLHLLKVSEGTTILLNCTGQVKGRKPAALGEAQPTKSLEENKSLKEQKKLNDLCFLKRLLQEIKTCWNKILMGTKEH
number of BTLA+ cells [1, 4]: induced a higher number
surface BTLA expression [1, 4]: increased
viability of γδT cells within lymph node lymphocytes cultured ex vivo (γδT cells [2]): sustained viability
frequency of IL-17 expressing γδT cells (γδT cells [3]): enhanced
frequency of TNF expressing γδT cells (γδT cells [3]): enhanced

B2: IL-23: cytokine, potent γδT cell activator (protein, UniProt Q9NPF7 20-189; P29460 23-328, looked up)
Interleukin-23 subunit alpha: RAVPGGSSPAWTQCQQLSQKLCTLAWSAHPLVGHMDLREEGDEETTNDVPHIQCGDGCDPQGLRDNSQFCLQRIHQGLIFYEKLLGSDIFTGEPSLLPDSPVGQLHASLLGLSQLLQPEGHHWETQQIPSLSPSQPWQRLLLRFKILRSLQAFVAVAARVFAHGAATLSP
Interleukin-12 subunit beta: IWELKKDVYVVELDWYPDAPGEMVVLTCDTPEEDGITWTLDQSSEVLGSGKTLTIQVKEFGDAGQYTCHKGGEVLSHSLLLLHKKEDGIWSTDILKDQKEPKNKTFLRCEAKNYSGRFTCWWLTTISTDLTFSVKSSRGSSDPQGVTCGAATLSAERVRGDNKEYEYSVECQEDSACPAAEESLPIEVMVDAVHKLKYENYTSSFFIRDIIKPDPPKNLQLKPLKNSRQVEVSWEYPDTWSTPHSYFSLTFCVQVQGKSKREKKDRVFTDKTSATVICRKNASISVRAQDRYYSSSWSEWASVPCS
BTLA induction in RORγt+ γδT cells after culture with activating cytokines [1]: either no or only a minimal effect
